As a reminder, the Kd is the constant that tells how readily two partners part at equilibrium. A lower Kd goes with higher affinity. As a reminder, the stoichiometry N is a count of units in the complex or per binding partner.

This note sets out measurements from publication PMC11527256.

The target in experiment [1] is K48-linked di-UB (UniProt P0CG48). Briefly: ITC. For orientation: ITC needs no label: the signal is the heat of the interaction.
The target of experiment [2] is K48-linked tetra-UB (UniProt P0CG48). Description: ITC.
Experiment [3] has as its target K48-linked tri-UB (UniProt P0CG48). Briefly: ITC.
Experiment [4] concerns the target K48-linked penta-UB (UniProt P0CG48). Description: ITC.
The target of experiment [5] is K63-linked di-UB (UniProt P0CG48). Description: ITC.
The target in experiment [6] is K63-linked penta-UB (UniProt P0CG48). Description: ITC.
For experiment [7], the target named is K63-linked tri-UB (UniProt P0CG48). Description: ITC.
Experiment [8] deals with K63-linked tetra-UB (UniProt P0CG48). Description: ITC.
The target of experiment [9] is K48-linked di-UB (UniProt P0CG48). Briefly: SEC-SAXS; complexes assembled at 170 μM, 1:1, in 20 mM HEPES pH 8.0, 150 mM NaCl, 1 mM TCEP; Superdex 75 10/300 increase coupled to SAXS (ESRF BM29). In general terms: Size exclusion chromatography separates by hydrodynamic size, large species first.
For experiment [10], the target named is K48-linked tetra-UB (UniProt P0CG48). Described as above.
Experiment [11] concerns the target K48-linked tri-UB (UniProt P0CG48). The description is as above.

In [1], “Cdu1^CA M149A/M153A variant (from UniProt B0B9A0 130-401) (enzyme)” yielded an equilibrium dissociation constant (Kd) of 2.91 µM, a dH of 1.89 kcal/mol and a stoichiometry N of 0.98. In experiment [2], the Kd is 1.24 µM, the dH was 10.9 kcal/mol and the stoichiometry N was 0.95. Moreover, in experiment [3], the Kd is 1.78 µM, the dH is 6.4 kcal/mol and the stoichiometry N worked out at 1.01.

For “Cdu1^CA Q384A/A385R variant (from UniProt B0B9A0 130-401) (enzyme)”, in [1], the dissociation constant (Kd) was 3.44 µM, the dH was 3.89 kcal/mol and the stoichiometry N worked out at 0.96. For the same substance, in experiment [2], the dissociation constant (Kd) was 1.42 µM, the dH is 7.86 kcal/mol and the stoichiometry N was determined as 1.14. In [3], this substance displayed a Kd of 1.65 µM, a dH of 7.7 kcal/mol and a stoichiometry N of 1.04.

“Cdu1^CA, catalytically inactive Cdu1(130-401) with C345 mutated to Ala (from UniProt B0B9A0 130-401) (enzyme)”: the dissociation constant (Kd) was 2.58 µM in experiment [1]; 0.31 µM in [2]; 0.28 µM in [4]; 0.8 µM in experiment [3]; 2.52 µM in experiment [5]; 6.56 µM in experiment [6]. The figures for the dissociation constant (Kd) in experiment [7] and in experiment [8] were 3.01 µM and 4.47 µM, respectively. Moreover, the dH worked out at 3.67 kcal/mol in experiment [1]; 9.63 kcal/mol in [2]; 10 kcal/mol in [4]; 7.05 kcal/mol in experiment [3]; 5.99 kcal/mol in experiment [5]; 10.9 kcal/mol in [6]. In addition, the dH in experiment [7] is 7.34 kcal/mol; in experiment [8], 9.93 kcal/mol. The stoichiometry N in experiment [1] came to 1.02; in experiment [2], 0.99; in experiment [4], 0.99; in experiment [3], 1.01; in [5] it was 0.92; in [6], 2.3. Also, the stoichiometry N came to 1.24 in experiment [7]; 1.6 in [8]; 1 in experiment [9]; 1 in experiment [10]; 1 in experiment [11].
